Assay results: the supplement of paper PMC7877785
± gives the uncertainty stated by the source.

Assay: self-splicing fitness, log relative to wild type (ln ratio); higher = more splicing; Tetrahymena group I intron in knt gene, E. coli kanamycin selection, DiMSum; sequences stand for … in CUCUCU…GGAGGGAAAAGUUAUCAGGCAUGCACCUGGUAGCUAGUCUUUAAACCAAUAGAUUGCAUCGGUUUAAAAGGCAAGACCGUCAAAUUGCGGGAAAGGGGUCAACAGCCGUUCAGUACCAAGUCUCAGGGGAAACUUUGAGAUGGCCUUGCAAAGGGUAUGGUAAUAAGCUGACGGACAUGGUCCUAACCACGCAGCCAAGUCCUAAGUCAACAGAUCUUCUGUUGAUAUGGAUGCAGUUCACAGACUAAAUGUCGGUCGGGGAAGAUGUAUUCUUCUCAUAAGAUAUAGUCGGACCUCUCCUUAAUGGGAGCUAGCGGAUGAAGUGAUGCAACACUGGAGCCGCUGGGAACUAAUUUGUAUGCGAAAGUAUAUUGAUUAGUUUUGGAGUACUCGUGGUCG
Procedure, shortened: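 A randomised library covering all eight P1ex-region intron nucleotides was built with the intron in the knt kanamycin-resistance gene on pET-22b(+) and held in E. coli BL21(DE3). Cells were grown overnight at 37°C or 30°C on LB agar, with or without 25 μg/mL kanamycin, plus 100 μg/mL carbenicillin, 50 μM IPTG and 0.2% rhamnose, and pooled colonies were amplicon-sequenced on an Illumina HiSeq 2500. DiMSum fitness is the error-weighted combination of wild-type-normalised replicate fold changes, kanamycin versus none.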

| Sequence | self-splicing fitness (ln) (30 °C) | self-splicing fitness (ln) (37 °C) |
| --- | --- | --- |
| CCUCAGCAAUAUUACGCGUU | -3.88 ± 0.23 | -2.96 ± 0.4 |
| CCUCAGCAAUAUUACGCUAC | -1.66 ± 0.33 | – |
| CCUCAGCAAUAUUACGCUCA | -2.6 ± 0.39 | -1.74 ± 0.22 |
| CCUCAGCAAUAUUACGGAUG | -0.811 ± 0.066 | -0.682 ± 0.087 |
| CCUCAGCAAUAUUACGGCCU | -4.16 ± 0.39 | -1.59 ± 0.29 |
| CCUCAGCAAUAUUACGGGAA | -2.4 ± 0.19 | -3.35 ± 0.3 |
| CCUCAGCAAUAUUACGGGUC | -2.5 ± 0.27 | -2.56 ± 0.36 |
| CCUCAGCAAUAUUACGGUCU | -3.73 ± 0.25 | -2.56 ± 0.27 |
| CCUCAGCAAUAUUACGUAAC | – | -2.13 ± 0.47 |
| CCUCAGCAAUAUUACGUCGU | -3.24 ± 0.15 | -2.82 ± 0.24 |
| CCUCAGCAAUAUUACGUCUC | -3.73 ± 0.24 | – |
| CCUCAGCAAUAUUACGUCUU | -3.91 ± 0.27 | -2.55 ± 0.26 |
| CCUCAGCAAUAUUACGUGCU | -3.84 ± 0.33 | -2.62 ± 0.39 |
| CCUCAGCAAUAUUACGUGGC | -3.94 ± 0.22 | -3.01 ± 0.24 |
| CCUGAGCAAUAUUACGACUU | -3.87 ± 0.27 | -2.46 ± 0.24 |
| CCUGAGCAAUAUUACGAUGA | -2.57 ± 0.2 | -1.44 ± 0.18 |
| CCUGAGCAAUAUUACGAUGG | -4.46 ± 0.21 | -2.58 ± 0.19 |
| CCUGAGCAAUAUUACGCCAU | -3.2 ± 0.4 | -2.13 ± 0.33 |
| CCUGAGCAAUAUUACGGCAA | -2.14 ± 0.22 | -2.42 ± 0.21 |
| CCUGAGCAAUAUUACGGCCA | -2.01 ± 0.34 | -2.05 ± 0.29 |
| CCUGAGCAAUAUUACGGGCA | -2.93 ± 0.19 | -1.83 ± 0.17 |
| CCUGAGCAAUAUUACGGGCG | -2.62 ± 0.23 | -2.1 ± 0.18 |
| CCUGAGCAAUAUUACGGGGA | -3.07 ± 0.15 | -3.37 ± 0.2 |
| CCUGAGCAAUAUUACGUAGC | -4.49 ± 0.27 | -1.77 ± 0.16 |
| CCUGAGCAAUAUUACGUCAA | -2.73 ± 0.22 | -2.36 ± 0.3 |
| CCUGAGCAAUAUUACGUCCA | -1.86 ± 0.28 | – |

| Sequence | self-splicing fitness (ln) (30 °C) | self-splicing fitness (ln) (37 °C) |
| --- | --- | --- |
| CCUGAGCAAUAUUACGUCGC | – | -2.54 ± 0.39 |
| CCUGAGCAAUAUUACGUCUU | – | -2.42 ± 0.23 |
| CCUGAGCAAUAUUACGUGAG | -3.61 ± 0.27 | -2.28 ± 0.24 |
| CCUGAGCAAUAUUACGUGUU | -4.7 ± 0.34 | -2.52 ± 0.17 |
| CCUUAGCAAUAUUACGAAAU | -3.26 ± 0.29 | -2.12 ± 0.31 |
| CCUUAGCAAUAUUACGAACA | – | -0.92 ± 0.29 |
| CCUUAGCAAUAUUACGAAUC | -2.65 ± 0.36 | -1.38 ± 0.34 |
| CCUUAGCAAUAUUACGACGG | -2.31 ± 0.17 | -2.95 ± 0.3 |
| CCUUAGCAAUAUUACGCAAA | – | -2.89 ± 0.34 |
| CCUUAGCAAUAUUACGCGUA | -3.27 ± 0.38 | -2.54 ± 0.36 |
| CCUUAGCAAUAUUACGCGUC | -4.42 ± 0.39 | -2.91 ± 0.31 |
| CCUUAGCAAUAUUACGCUCG | – | -1.73 ± 0.27 |
| CCUUAGCAAUAUUACGGAAU | -3.53 ± 0.2 | -3.15 ± 0.3 |
| CCUUAGCAAUAUUACGGACA | -2.53 ± 0.32 | – |
| CCUUAGCAAUAUUACGGUAU | -3.64 ± 0.33 | -2.67 ± 0.36 |
| CCUUAGCAAUAUUACGGUCA | – | -3.63 ± 0.37 |
| CCUUAGCAAUAUUACGGUCC | -3.5 ± 0.46 | -3.04 ± 0.35 |
| CCUUAGCAAUAUUACGUAUG | -2.98 ± 0.19 | -0.234 ± 0.12 |
| CCUUAGCAAUAUUACGUCCU | -2.36 ± 0.17 | -2.65 ± 0.38 |
| CCUUAGCAAUAUUACGUGUA | -4.28 ± 0.43 | -1.47 ± 0.15 |
| CCUUAGCAAUAUUACGUGUU | -4.69 ± 0.32 | -3.25 ± 0.21 |
| CCUUAGCAAUAUUACGUUGG | -3.71 ± 0.21 | -3.32 ± 0.26 |
| CGAAAGCAAUAUUACGAAGG | -1.05 ± 0.11 | -1.03 ± 0.16 |
| CGAAAGCAAUAUUACGACAA | -1.13 ± 0.25 | -1.63 ± 0.18 |
| CGAAAGCAAUAUUACGACAC | -2.69 ± 0.18 | -1.56 ± 0.26 |
| CGAAAGCAAUAUUACGAGAC | – | -2.62 ± 0.24 |
